Data as given in article PMC9482650, “Quantitative fragmentomics allow affinity mapping of interactomes” (Nature Communications, 2022).

T1: DLG3_1, Q92796
T1 sequence (Q92796 125-227, limits assumed, looked up): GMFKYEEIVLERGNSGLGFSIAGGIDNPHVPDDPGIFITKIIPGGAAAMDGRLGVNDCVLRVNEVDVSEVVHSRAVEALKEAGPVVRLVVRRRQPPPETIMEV

T2: NHERF3_3, Q5T2W1
T2 sequence (Q5T2W1 238-333, limits assumed, looked up): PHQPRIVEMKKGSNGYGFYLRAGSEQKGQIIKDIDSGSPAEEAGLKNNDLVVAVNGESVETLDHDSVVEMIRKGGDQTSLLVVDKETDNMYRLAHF

T3: NHERF3_4, Q5T2W1
T3 sequence (Q5T2W1 373-468, limits assumed, looked up): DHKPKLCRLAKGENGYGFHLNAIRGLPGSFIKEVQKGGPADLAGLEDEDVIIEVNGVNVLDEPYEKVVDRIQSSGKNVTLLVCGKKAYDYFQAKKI

T4: DFNB31_2, Q9P202
T4 sequence (Q9P202 274-371, limits assumed, looked up): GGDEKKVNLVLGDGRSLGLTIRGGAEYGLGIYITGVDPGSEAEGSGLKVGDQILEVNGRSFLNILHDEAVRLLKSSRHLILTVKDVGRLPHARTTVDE

T5: GRIP1_7, Q9Y3R0
T5 sequence (Q9Y3R0 999-1096, limits assumed, looked up): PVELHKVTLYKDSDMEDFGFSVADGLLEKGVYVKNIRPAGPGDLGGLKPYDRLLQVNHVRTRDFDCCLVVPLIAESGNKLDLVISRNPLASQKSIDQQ

T6: APBA2_2, Q99767
T6 sequence (Q99767 654-744, limits assumed, looked up): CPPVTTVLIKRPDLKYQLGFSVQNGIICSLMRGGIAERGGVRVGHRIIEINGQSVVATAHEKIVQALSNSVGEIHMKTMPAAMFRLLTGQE

T7: PTPN13_1, Q12923
T7 sequence (Q12923 1088-1188, limits assumed, looked up): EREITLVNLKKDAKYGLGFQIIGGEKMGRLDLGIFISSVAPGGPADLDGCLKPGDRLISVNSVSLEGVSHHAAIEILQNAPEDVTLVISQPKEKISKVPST

T8: LRRC7, Q96NW7
T8 sequence (Q96NW7 1440-1537, limits assumed, looked up): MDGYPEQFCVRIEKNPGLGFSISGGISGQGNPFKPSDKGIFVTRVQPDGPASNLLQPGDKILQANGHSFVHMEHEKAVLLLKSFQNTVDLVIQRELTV

T9: SIPA1L2, Q9P2F8
T9 sequence (Q9P2F8 945-1036, limits assumed, looked up): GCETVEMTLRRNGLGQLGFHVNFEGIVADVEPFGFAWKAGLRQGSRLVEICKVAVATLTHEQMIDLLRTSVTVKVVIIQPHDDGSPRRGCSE

T10: ARHGAP21, Q5T5U3
T10 sequence (Q5T5U3 45-169, limits assumed, looked up): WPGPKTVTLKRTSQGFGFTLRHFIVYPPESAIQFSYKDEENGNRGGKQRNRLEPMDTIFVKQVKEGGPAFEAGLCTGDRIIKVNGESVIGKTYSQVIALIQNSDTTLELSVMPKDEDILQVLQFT

T11: NHERF3_1, Q5T2W1
T11 sequence (Q5T2W1 4-100, limits assumed, looked up): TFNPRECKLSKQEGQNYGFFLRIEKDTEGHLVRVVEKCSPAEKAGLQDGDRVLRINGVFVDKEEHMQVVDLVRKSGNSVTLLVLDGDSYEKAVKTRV

T12: APBA2_1, Q99767
T12 sequence (Q99767 563-664, limits assumed, looked up): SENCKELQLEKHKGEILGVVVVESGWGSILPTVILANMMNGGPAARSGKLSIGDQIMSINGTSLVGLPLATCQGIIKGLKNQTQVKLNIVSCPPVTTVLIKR


Columns and labels:
Assay in all cases: holdup assay
Set-up in all cases: key: below the threshold = too weak to quantify, mostly under pKd 3.1 to 4
Conditions in all cases: plain residues with an end cap or a label only (N-terminal biotin on a linker: ado-ado)
IL16_4, Q14005 = biological target: IL16_4, Q14005
FRMPD4, Q14CM0 = biological target: FRMPD4, Q14CM0
DLG3_1, Q92796 = biological target: T1, DLG3_1, Q92796
NHERF3_3, Q5T2W1 = biological target: T2, NHERF3_3, Q5T2W1
DLG2_2, Q15700 = biological target: DLG2_2, Q15700
GRID2IP_1, A4D2P6 = biological target: GRID2IP_1, A4D2P6
Inadl_5, Q8NI35 = biological target: Inadl_5, Q8NI35
NHERF3_4, Q5T2W1 = biological target: T3, NHERF3_4, Q5T2W1
DLG1_2, Q12959 = biological target: DLG1_2, Q12959
DLG1_3, Q12959 = biological target: DLG1_3, Q12959
DFNB31_2, Q9P202 = biological target: T4, DFNB31_2, Q9P202
GRIP2_7, Q9C0E4 = biological target: GRIP2_7, Q9C0E4
FRMPD2_1, Q68DX3 = biological target: FRMPD2_1, Q68DX3
MAGI2_2, Q86UL8 = biological target: MAGI2_2, Q86UL8
Inadl_2, Q8NI35 = biological target: Inadl_2, Q8NI35
GRIP1_7, Q9Y3R0 = biological target: T5, GRIP1_7, Q9Y3R0
APBA2_2, Q99767 = biological target: T6, APBA2_2, Q99767
PTPN13_1, Q12923 = biological target: T7, PTPN13_1, Q12923
HTRA2, O43464 = biological target: HTRA2, O43464
LRRC7, Q96NW7 = biological target: T8, LRRC7, Q96NW7
SIPA1L2, Q9P2F8 = biological target: T9, SIPA1L2, Q9P2F8
GIPC2, Q8TF65 = biological target: GIPC2, Q8TF65
ARHGAP21, Q5T5U3 = biological target: T10, ARHGAP21, Q5T5U3
NHERF3_1, Q5T2W1 = biological target: T11, NHERF3_1, Q5T2W1
APBA2_1, Q99767 = biological target: T12, APBA2_1, Q99767
MAGI2_3, Q86UL8 = biological target: MAGI2_3, Q86UL8
Chain of MAGI2_3, Q86UL8 (Q86UL8 600-682): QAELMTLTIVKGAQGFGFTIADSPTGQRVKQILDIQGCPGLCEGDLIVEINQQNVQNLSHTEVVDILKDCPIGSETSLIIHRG

Chain of Inadl_5, Q8NI35 (Q8NI35 673-780): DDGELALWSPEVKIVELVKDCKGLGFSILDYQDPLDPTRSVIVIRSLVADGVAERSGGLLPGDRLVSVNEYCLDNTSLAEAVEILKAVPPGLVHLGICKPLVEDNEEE
Chain of IL16_4, Q14005 (Q14005 1229-1329): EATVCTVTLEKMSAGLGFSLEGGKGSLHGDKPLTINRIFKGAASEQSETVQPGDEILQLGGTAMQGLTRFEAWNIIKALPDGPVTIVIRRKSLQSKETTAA
Chain of Inadl_2, Q8NI35 (Q8NI35 238-335): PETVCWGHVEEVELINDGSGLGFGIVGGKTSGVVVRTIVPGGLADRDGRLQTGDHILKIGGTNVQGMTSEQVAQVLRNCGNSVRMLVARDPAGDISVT
Chain of HTRA2, O43464 (O43464 355-458): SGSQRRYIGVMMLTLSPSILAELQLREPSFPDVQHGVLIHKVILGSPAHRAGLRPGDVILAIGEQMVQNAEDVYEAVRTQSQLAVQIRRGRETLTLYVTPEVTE
Chain of MAGI2_2, Q86UL8 (Q86UL8 410-522): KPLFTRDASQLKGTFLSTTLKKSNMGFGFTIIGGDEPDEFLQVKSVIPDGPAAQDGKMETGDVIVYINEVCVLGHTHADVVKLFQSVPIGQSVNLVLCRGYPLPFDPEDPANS
Chain of GRIP2_7, Q9C0E4 (Q9C0E4 934-1023): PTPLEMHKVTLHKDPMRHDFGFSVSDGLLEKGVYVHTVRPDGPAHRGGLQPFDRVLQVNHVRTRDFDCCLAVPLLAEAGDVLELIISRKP
Chain of DLG2_2, Q15700 (Q15700 189-283): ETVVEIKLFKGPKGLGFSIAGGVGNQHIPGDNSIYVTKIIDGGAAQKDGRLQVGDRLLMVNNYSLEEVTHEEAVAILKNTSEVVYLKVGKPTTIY
Chain of GIPC2, Q8TF65 (Q8TF65 112-203): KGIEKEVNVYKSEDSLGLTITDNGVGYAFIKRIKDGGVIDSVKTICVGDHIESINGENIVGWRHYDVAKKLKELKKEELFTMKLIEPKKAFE
Chain of GRID2IP_1, A4D2P6 (A4D2P6 1-87): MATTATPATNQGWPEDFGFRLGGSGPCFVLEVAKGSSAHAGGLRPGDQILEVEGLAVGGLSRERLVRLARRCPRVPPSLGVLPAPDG
Chain of FRMPD4, Q14CM0 (Q14CM0 67-160): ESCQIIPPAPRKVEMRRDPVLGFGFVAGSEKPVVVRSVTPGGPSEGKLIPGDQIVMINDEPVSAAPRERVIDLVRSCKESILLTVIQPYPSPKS
Chain of DLG1_3, Q12959 (Q12959 457-571): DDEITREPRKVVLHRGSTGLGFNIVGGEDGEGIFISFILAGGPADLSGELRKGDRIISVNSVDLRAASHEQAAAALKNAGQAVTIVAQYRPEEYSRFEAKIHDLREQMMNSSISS
Chain of DLG1_2, Q12959 (Q12959 314-412): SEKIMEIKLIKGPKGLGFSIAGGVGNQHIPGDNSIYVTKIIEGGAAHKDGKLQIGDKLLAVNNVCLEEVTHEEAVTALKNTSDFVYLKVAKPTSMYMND
Chain of FRMPD2_1, Q68DX3 (Q68DX3 770-861): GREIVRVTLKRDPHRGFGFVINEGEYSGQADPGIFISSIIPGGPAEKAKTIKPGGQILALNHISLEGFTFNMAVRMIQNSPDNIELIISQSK

Binder | pKd (IL16_4, Q14005) | pKd (FRMPD4, Q14CM0) | pKd (DLG3_1, Q92796) | pKd (NHERF3_3, Q5T2W1) | pKd (DLG2_2, Q15700) | pKd (GRID2IP_1, A4D2P6) | pKd (Inadl_5, Q8NI35) | pKd (NHERF3_4, Q5T2W1) | pKd (DLG1_2, Q12959) | pKd (DLG1_3, Q12959) | pKd (DFNB31_2, Q9P202) | pKd (GRIP2_7, Q9C0E4) | pKd (FRMPD2_1, Q68DX3) | pKd (MAGI2_2, Q86UL8) | pKd (Inadl_2, Q8NI35) | pKd (GRIP1_7, Q9Y3R0) | pKd (APBA2_2, Q99767) | pKd (PTPN13_1, Q12923) | pKd (HTRA2, O43464) | pKd (LRRC7, Q96NW7) | further results
LPPPESESKV [KCNJ9, Q92806] | below the threshold | below the threshold | below the threshold | below the threshold | below the threshold | below the threshold | below the threshold | below the threshold | 3.54 | below the threshold | below the threshold | below the threshold | below the threshold | below the threshold | below the threshold | below the threshold | below the threshold | below the threshold | below the threshold | below the threshold | pKd (SIPA1L2, Q9P2F8): below the threshold; pKd (GIPC2, Q8TF65): below the threshold; pKd (ARHGAP21, Q5T5U3): below the threshold; pKd (NHERF3_1, Q5T2W1): 4.15; pKd (APBA2_1, Q99767): below the threshold; pKd (MAGI2_3, Q86UL8): 3.64
KKTPVSRSHL [SLC22A3, O75751] | below the threshold | 3.58 | below the threshold | below the threshold | below the threshold | below the threshold | below the threshold | below the threshold | 3.52 | below the threshold | below the threshold | below the threshold | below the threshold | below the threshold | below the threshold | below the threshold | below the threshold | below the threshold | below the threshold | below the threshold | pKd (SIPA1L2, Q9P2F8): 3.53; pKd (GIPC2, Q8TF65): below the threshold; pKd (ARHGAP21, Q5T5U3): 3.97; pKd (NHERF3_1, Q5T2W1): 4.39; pKd (APBA2_1, Q99767): below the threshold; pKd (MAGI2_3, Q86UL8): below the threshold
KAEEKPPSKV [SCN4B, Q8IWT1] | 3.65 | below the threshold | below the threshold | below the threshold | below the threshold | below the threshold | below the threshold | below the threshold | 3.52 | below the threshold | below the threshold | below the threshold | below the threshold | below the threshold | below the threshold | below the threshold | below the threshold | below the threshold | below the threshold | below the threshold | pKd (SIPA1L2, Q9P2F8): below the threshold; pKd (GIPC2, Q8TF65): below the threshold; pKd (ARHGAP21, Q5T5U3): below the threshold; pKd (NHERF3_1, Q5T2W1): below the threshold; pKd (APBA2_1, Q99767): below the threshold; pKd (MAGI2_3, Q86UL8): 3.48
HDDYFYHDEL [RCN2, Q14257] | below the threshold | 3.94 | below the threshold | below the threshold | below the threshold | below the threshold | below the threshold | below the threshold | below the threshold | below the threshold | below the threshold | below the threshold | below the threshold | below the threshold | below the threshold | below the threshold | below the threshold | below the threshold | below the threshold | below the threshold | pKd (SIPA1L2, Q9P2F8): below the threshold; pKd (GIPC2, Q8TF65): below the threshold; pKd (ARHGAP21, Q5T5U3): 4.17; pKd (NHERF3_1, Q5T2W1): 4.34; pKd (APBA2_1, Q99767): below the threshold; pKd (MAGI2_3, Q86UL8): below the threshold
